Test results taken from patent US11254720B2, “Methods and systems for designing and/or characterizing soluble lipidated ligand agents” (Tufts Medical Center, priority 2013, dated 2022).

Key:
CCK1R = target: T1, CCK1R (Homo sapiens, UniProt P32238); assay: SRE-luciferase agonist assay in transfected HEK293 cells; assay type: cell-based; settings: tethered ligand cDNA cotransfected, 24 hours
T1 construct: expressed in transfected cells; host or cells: HEK293
T1 sequence (P32238 1-428): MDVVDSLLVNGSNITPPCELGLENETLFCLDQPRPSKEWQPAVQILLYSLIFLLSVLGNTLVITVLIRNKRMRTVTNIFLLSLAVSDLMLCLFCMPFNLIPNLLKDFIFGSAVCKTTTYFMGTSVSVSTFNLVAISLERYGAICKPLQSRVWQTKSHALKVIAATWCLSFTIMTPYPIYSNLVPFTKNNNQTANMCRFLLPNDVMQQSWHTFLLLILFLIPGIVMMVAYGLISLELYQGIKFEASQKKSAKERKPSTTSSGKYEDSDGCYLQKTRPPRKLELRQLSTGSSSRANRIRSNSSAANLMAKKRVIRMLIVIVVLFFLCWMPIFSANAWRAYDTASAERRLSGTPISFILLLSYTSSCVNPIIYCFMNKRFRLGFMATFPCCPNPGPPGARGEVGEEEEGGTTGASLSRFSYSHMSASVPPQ
Procedure: (§1) A) Tethered CCK4-Gly activates the CCK2 receptor (left panel). Potency of the corresponding soluble lipidated ligand agent (1-CCK4-Gly) exceeds that of soluble CCK-4-Gly (right panel). […] HEK293 cells were transiently cotransfected with cDNAs encoding: the designated CCK receptor subtype, a 5X-SRE-Luc-pest reporter gene (pGL4.33), tethered ligand (as indicated) and a β-galactosidase gene to control for transfection efficiency. Tethered ligand activity was measured 24 hours following transfection. To assess activity of soluble and lipidated CCK-4-Gly, cells were stimulated for 4 hours with ligand. Both soluble and tethered ligand activity was quantified relative to a parallel preparation of CCK receptor expressing cells stimulated for 4 hours with soluble amidated CCK-4 (s-CCK4-NH2, 10 μM) for CCK-2R and soluble amidated CCK-8 (s-CCK8-NH2, 10 μM) for CCK-1R.
(§2) Neurokinin receptors were purchased from the Missouri S+T cDNA Resource center. […] The nucleotide sequences of all receptor coding regions and tethered ligands were confirmed by automated DNA sequencing and analyzed using Vector NTI software (Invitrogen).

CCK2R = target: T2, CCK2R (Homo sapiens, UniProt P32239); assay: as above; assay type: cell-based; settings: tethered ligand cDNA cotransfected, 24 hours
T2 construct: expressed in transfected cells; host or cells: HEK293
T2 sequence (P32239 1-447): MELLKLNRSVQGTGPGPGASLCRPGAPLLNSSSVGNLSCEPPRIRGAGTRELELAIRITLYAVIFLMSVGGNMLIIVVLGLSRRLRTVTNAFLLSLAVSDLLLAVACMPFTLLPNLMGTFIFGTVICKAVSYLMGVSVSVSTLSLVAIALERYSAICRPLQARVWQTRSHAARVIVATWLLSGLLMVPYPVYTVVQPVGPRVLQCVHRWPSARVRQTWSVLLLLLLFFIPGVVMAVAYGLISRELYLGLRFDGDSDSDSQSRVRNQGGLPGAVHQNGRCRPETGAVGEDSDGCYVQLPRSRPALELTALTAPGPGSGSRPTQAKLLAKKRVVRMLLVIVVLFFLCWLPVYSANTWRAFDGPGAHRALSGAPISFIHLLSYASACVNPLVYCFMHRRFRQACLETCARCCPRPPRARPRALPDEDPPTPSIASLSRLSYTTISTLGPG
Procedure: as §1, §2

Question: How did the “Activity of membrane-tethered ligand at CCK1R” value (CCK1R) turn out when “tCCK4-Gly: membrane-tethered glycine extended CCK4 (WMDFG) (chain (part 1 of 2) MSTSMIRDVELAEEALPKKTGGPQGSRRCLFSLFIVAGATTLFCLLHFGVI; left off: small tags and cut ends)” was run?
Answer: Its value is “no activity”.

Question: What about the “Activity of membrane-tethered ligand at CCK2R” value (CCK2R) of the same substance?
Answer: The value was “activated the CCK2R in a concentration dependent manner”.
